# The supplement of paper PMC7877785
# ± gives the uncertainty stated by the source.
# Assay: self-splicing fitness, log relative to wild type (ln ratio); higher = more splicing; Tetrahymena group I intron in knt gene, E. coli kanamycin selection, DiMSum; sequences stand for … in CUCUCU…GGAGGGAAAAGUUAUCAGGCAUGCACCUGGUAGCUAGUCUUUAAACCAAUAGAUUGCAUCGGUUUAAAAGGCAAGACCGUCAAAUUGCGGGAAAGGGGUCAACAGCCGUUCAGUACCAAGUCUCAGGGGAAACUUUGAGAUGGCCUUGCAAAGGGUAUGGUAAUAAGCUGACGGACAUGGUCCUAACCACGCAGCCAAGUCCUAAGUCAACAGAUCUUCUGUUGAUAUGGAUGCAGUUCACAGACUAAAUGUCGGUCGGGGAAGAUGUAUUCUUCUCAUAAGAUAUAGUCGGACCUCUCCUUAAUGGGAGCUAGCGGAUGAAGUGAUGCAACACUGGAGCCGCUGGGAACUAAUUUGUAUGCGAAAGUAUAUUGAUUAGUUUUGGAGUACUCGUGGUCG
# Method in brief: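 Colonies from six replicate transformations of E. coli BL21(DE3) were pooled and amplicon-sequenced on an Illumina HiSeq 2500. The library placed an intron with all eight P1ex-region nucleotides randomised inside the knt kanamycin-resistance gene on pET-22b(+), and cells grew overnight at 37°C or 30°C on LB agar with or without 25 μg/mL kanamycin (plus 100 μg/mL carbenicillin, 50 μM IPTG, 0.2% rhamnose). Fitness is the DiMSum error-weighted combination of wild-type-normalised replicate fold changes, kanamycin versus none.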
Sequence,self-splicing fitness (ln) (30 °C),self-splicing fitness (ln) (37 °C)
ACGUAGCAAUAUUACGCGAU,-3.01 ± 0.14,-1.5 ± 0.11
CGUGAGCAAUAUUACGUUUU,-3.42 ± 0.16,-3.73 ± 0.37
GCGCAGCAAUAUUACGGCUC,-0.438 ± 0.12,0.47 ± 0.15
UAGAAGCAAUAUUACGGACC,-2 ± 0.4,-0.433 ± 0.34
UGGCAGCAAUAUUACGGCCU,-1.91 ± 0.18,-1.57 ± 0.18
AGAUAGCAAUAUUACGACAA,-0.741 ± 0.072,-0.217 ± 0.077
GCGCAGCAAUAUUACGUGGC,-1.81 ± 0.29,-2.36 ± 0.29
GCGCAGCAAUAUUACGCCGA,-0.753 ± 0.49,-1.27 ± 0.28
GCUAAGCAAUAUUACGCUCU,-1.11 ± 0.13,0.486 ± 0.15
GCACAGCAAUAUUACGCUCG,-0.537 ± 0.066,0.118 ± 0.095
CGAGAGCAAUAUUACGCCUC,-4.16 ± 0.39,-1.27 ± 0.18
GGAUAGCAAUAUUACGUUGU,-3.13 ± 0.2,-1.58 ± 0.15
GAUAAGCAAUAUUACGGAAA,-2.35 ± 0.41,-1.67 ± 0.29
GCGAAGCAAUAUUACGGCGU,-2.68 ± 0.37,-0.799 ± 0.46
CUGCAGCAAUAUUACGAUUU,-4.06 ± 0.17,-1.7 ± 0.14
GCUCAGCAAUAUUACGUCAA,-1.84 ± 0.16,-1.77 ± 0.22
AUGUAGCAAUAUUACGUGGC,-4.11 ± 0.46,-2.84 ± 0.25
CCAGAGCAAUAUUACGGCUU,-3.75 ± 0.28,-1.8 ± 0.2
UUAGAGCAAUAUUACGUAAG,-2.23 ± 0.097,-1.2 ± 0.1
GACAAGCAAUAUUACGGGCU,-1.63 ± 0.087,-1.39 ± 0.097
CUGGAGCAAUAUUACGUGAU,-2.53 ± 0.076,-1.18 ± 0.078
GAGCAGCAAUAUUACGUGCA,-1.15 ± 0.071,-0.471 ± 0.081
ACUUAGCAAUAUUACGAGAA,-2.06 ± 0.29,-2.07 ± 0.23
GAAAAGCAAUAUUACGACAU,-0.184 ± 0.011,0.116 ± 0.032
CCUGAGCAAUAUUACGAAGG,-3.87 ± 0.3,-2.36 ± 0.32

Sequence,self-splicing fitness (ln) (30 °C),self-splicing fitness (ln) (37 °C)
CAACAGCAAUAUUACGGAGU,-3.71 ± 0.17,-1.22 ± 0.12
GCAAAGCAAUAUUACGUGGA,-2.07 ± 0.14,-2.36 ± 0.16
CACAAGCAAUAUUACGUCUA,-1.42 ± 0.087,-1.26 ± 0.084
CAGAAGCAAUAUUACGGCAG,-0.0496 ± 0.063,0.33 ± 0.083
AAAGAGCAAUAUUACGGGUC,-3.24 ± 0.21,-3.09 ± 0.37
CCCUAGCAAUAUUACGUCAA,-3.16 ± 0.32,-3.46 ± 0.39
AAAGAGCAAUAUUACGUAGA,-3.25 ± 0.24,-1.7 ± 0.2
AUUGAGCAAUAUUACGAUUU,-1.11 ± 0.09,-0.383 ± 0.11
UGGUAGCAAUAUUACGCAGA,-2.45 ± 0.16,-0.684 ± 0.1
UAAAAGCAAUAUUACGCGUU,-2.85 ± 0.13,-1.14 ± 0.13
UAGUAGCAAUAUUACGACCC,-0.998 ± 0.35,-1.28 ± 0.43
UCUCAGCAAUAUUACGGUAU,-3.7 ± 0.21,-3.05 ± 0.26
UUUUAGCAAUAUUACGACAG,-0.158 ± 0.23,0.172 ± 0.27
CAACAGCAAUAUUACGCACA,-1.23 ± 0.077,-0.561 ± 0.083
ACCCAGCAAUAUUACGCAAA,-1.21 ± 0.065,-0.816 ± 0.068
ACGCAGCAAUAUUACGGCUG,-3.03 ± 0.16,-3.01 ± 0.22
AUGCAGCAAUAUUACGGCCG,-1.62 ± 0.27,-1.05 ± 0.3
AAACAGCAAUAUUACGGUGC,-2.97 ± 0.11,-3.4 ± 0.17
GUCUAGCAAUAUUACGACAA,-2.6 ± 0.23,-1.56 ± 0.26
GGGGAGCAAUAUUACGUGUA,-3.7 ± 0.31,-2.23 ± 0.22
UACGAGCAAUAUUACGCAAC,-2.85 ± 0.22,-2.19 ± 0.26
AUCUAGCAAUAUUACGGACA,-0.495 ± 0.14,0.224 ± 0.13
GAAAAGCAAUAUUACGGUCU,-0.737 ± 0.057,-0.398 ± 0.072
ACAGAGCAAUAUUACGAGUG,-4.35 ± 0.37,-3.43 ± 0.29
UUACAGCAAUAUUACGUCCU,-2.11 ± 0.1,-0.74 ± 0.089

Sequence,self-splicing fitness (ln) (30 °C),self-splicing fitness (ln) (37 °C)
CUGUAGCAAUAUUACGAGAA,–,-2.78 ± 0.38
UUCCAGCAAUAUUACGUUGC,-2.4 ± 0.15,-2.47 ± 0.33
CUAGAGCAAUAUUACGUUGG,-1.71 ± 0.11,-0.638 ± 0.13
GACGAGCAAUAUUACGUGUG,-2.9 ± 0.087,-1.01 ± 0.077
UGAUAGCAAUAUUACGUAAA,-3.07 ± 0.16,-1.64 ± 0.14
CAGUAGCAAUAUUACGCAAA,–,-3.33 ± 0.43
GGUGAGCAAUAUUACGCAUU,-1.28 ± 0.25,-1.89 ± 0.34
CCGCAGCAAUAUUACGCACU,-2.9 ± 0.19,-2.51 ± 0.24
UAGAAGCAAUAUUACGAACG,-0.0437 ± 0.11,0.576 ± 0.14
UCAGAGCAAUAUUACGAAAG,-2.84 ± 0.36,-1.6 ± 0.38
GUUAAGCAAUAUUACGUGCG,-0.344 ± 0.12,-1.15 ± 0.12
UUAUAGCAAUAUUACGAUUA,-0.871 ± 0.11,-0.272 ± 0.13
CAAGAGCAAUAUUACGUGGU,-3.24 ± 0.11,-2.46 ± 0.16
AAAGAGCAAUAUUACGAACC,–,-1.39 ± 0.46
AAUUAGCAAUAUUACGCAGA,-1.71 ± 0.33,-1.24 ± 0.31
UUACAGCAAUAUUACGCUAC,-3.71 ± 0.22,-1.96 ± 0.24
UAGUAGCAAUAUUACGGGCA,-1.17 ± 0.16,-0.536 ± 0.15
UACGAGCAAUAUUACGGAGA,-3.09 ± 0.33,-2.84 ± 0.45
ACACAGCAAUAUUACGUUCA,-1.96 ± 0.066,-0.442 ± 0.064
GAGCAGCAAUAUUACGCGCC,-3.87 ± 0.28,-3.17 ± 0.35
GCGGAGCAAUAUUACGUCGA,-2.59 ± 0.32,-1.83 ± 0.24
UUUCAGCAAUAUUACGGGGG,-2.22 ± 0.15,-1.45 ± 0.16
AAUUAGCAAUAUUACGGAUA,-1.75 ± 0.11,-0.926 ± 0.11
GGUCAGCAAUAUUACGAAGU,-0.729 ± 0.076,-0.336 ± 0.1
UUGUAGCAAUAUUACGUUAC,–,-1.65 ± 0.43

Sequence,self-splicing fitness (ln) (30 °C),self-splicing fitness (ln) (37 °C)
UUAAAGCAAUAUUACGACGA,0.0585 ± 0.12,0.0349 ± 0.12
CGAUAGCAAUAUUACGUAGA,-3.31 ± 0.17,-1.3 ± 0.13
GAACAGCAAUAUUACGGUUG,-2 ± 0.1,-0.692 ± 0.12
AUUCAGCAAUAUUACGGAGA,-1.48 ± 0.12,-0.618 ± 0.11
CUCAAGCAAUAUUACGACCG,-1.26 ± 0.12,-0.638 ± 0.16
UCCCAGCAAUAUUACGGACG,-3.93 ± 0.21,-1.97 ± 0.12
AUAUAGCAAUAUUACGAUAU,-1.87 ± 0.13,-1.33 ± 0.13
UCGCAGCAAUAUUACGCAAC,–,-2.8 ± 0.17
GAUCAGCAAUAUUACGUGUU,-1.75 ± 0.06,-1.48 ± 0.09
GAGGAGCAAUAUUACGAUAA,-2.91 ± 0.26,-1.35 ± 0.33
GUUCAGCAAUAUUACGGUAG,-2.08 ± 0.078,-0.531 ± 0.093
AAAAAGCAAUAUUACGAUUU,0.149 ± 0.074,0.324 ± 0.095
ACCCAGCAAUAUUACGCACA,-1.56 ± 0.081,-0.306 ± 0.11
UGGCAGCAAUAUUACGGACG,0.0917 ± 0.19,0.916 ± 0.24
CGAGAGCAAUAUUACGGGGG,-3.83 ± 0.43,-3.14 ± 0.47
CUAAAGCAAUAUUACGAUGC,-3.96 ± 0.3,-3.1 ± 0.33
UUCAAGCAAUAUUACGGUAU,-2.84 ± 0.11,-1.64 ± 0.11
GACAAGCAAUAUUACGCUCC,-3.8 ± 0.24,-2.56 ± 0.27
GCGCAGCAAUAUUACGCGUA,-1.14 ± 0.082,-1.39 ± 0.083
UCGAAGCAAUAUUACGCCAG,-2.24 ± 0.25,-2.09 ± 0.42
CCGUAGCAAUAUUACGUAUC,–,-2.65 ± 0.29
CGCCAGCAAUAUUACGAAGA,-2.64 ± 0.36,-2.2 ± 0.24
